According to paper PMC10065799, “High-throughput profiling of sequence recognition by tyrosine kinases and SH2 domains using bacterial peptide display” (eLife, 2023):

Assays:
c-Src kinase domain = c-Src kinase domain (Homo sapiens, UniProt P12931); test: RP-HPLC assay to measure peptide phosphorylation kinetics; assay type: biochemical; conditions: purified peptide substrate
Description: To validate the enrichment scores observed in the c-Src screening data, the phosphorylation rates were measured in vitro with the purified catalytic domain of c-Src and synthetic 11-residue peptides derived from sequences in the pTyr-Var library. […] Reactions were initiated by adding 1 mM ATP. At various time points, 100 μL aliquots were removed and quenched by the addition of EDTA to a final concentration of 25 mM. Each time point sample was analyzed by analytical RP-HPLC, monitoring absorbance at 214 nm. Forty μL of each time point was injected onto a C18 column (ZORBAX 300 SB-C18, 5 μm, 4.6x150 mm). The solvent system used was water with 0.1% trifluoroacetic acid (solvent A) and acetonitrile with 0.1% trifluoroacetic acid (solvent B). […] The fractional product peak area was plotted as a function of reaction time, and the initial linear regime of this plot was fitted to a straight line to determine a reaction rate. Rates were corrected for substrate and enzyme concentration. Reactions were done in triplicate or quadruplicate.

FGFR1 kinase domain = test: LC-MS assay of intact SHP2 protein phosphorylation; assay type: biochemical, human; conditions: SHP2 10 μM, kinase 1 μM, 1 hr, 37 °C, 2 to 3 measurements
Description: (§1) The same protocol used to express and purify SH2 domains, excluding co-expression of BirA and addition of biotin, was applied to the expression and purification of the SHP2 variants.
(§2) To pre-activate the kinases, 1 μM of each purified kinase domain was preincubated at 37 °C for 30 min in the same buffer conditions used in the kinase domain peptide display screen, with 1 mM ATP. The reaction of the kinase with SHP2 was initiated with the addition of 10 μM SHP2, and the mixture was incubated in 37 °C for 1 hr. To terminate the reaction, the mixture was quenched with 200 mM EDTA. The reaction mixture was diluted 3:2 in water and injected onto a BEH C8 column (Waters) on a UPLC-MS system (Xevo QToF, Waters). Reverse-phase liquid chromatography was carried out at 0.3 mL/min with solvents A (H2O, 0.1% (v/v) formic acid) and B (acetonitrile, 0.1% (v/v) formic acid). Proteins were eluted over a gradient of 5–95% B for 8.5 min. The protein peak on the chromatogram was deconvoluted using the MaxEnt1 algorithm from 32,000–65,000 Da with a resolution of 1 Da/channel over 30 iterations. Peaks were chosen according to the theoretical MW of the protein within a range of 5 Da, and integrated for the signal intensity.

Fyn kinase domain = test: LC-MS assay of intact SHP2 protein phosphorylation; assay type: biochemical, human; conditions: SHP2 10 μM, kinase 1 μM, 1 hr, 37 °C, 2 to 3 measurements
Description: as §1, §2

| Molecule | Phosphorylation Rate (c-Src kinase domain) | phosphorylation of intact SHP2 by FGFR1 (FGFR1 kinase domain) | phosphorylation of intact SHP2 by Fyn (Fyn kinase domain) |
| --- | --- | --- | --- |
| Ac-AGQEEYSAMRD-NH2 [HRAS-Y64] | 0.156 s⁻¹ |  |  |
| SHP2 wild-type: human full-length SHP2 (residues 1–526; C459E) (protein, UniProt Q06124 2-593, looked up, variant C459E) Tyrosine-protein phosphatase …: TSRRWFHPNITGVEAENLLLTRGVDGSFLARPSKSNPGDFTLSVRRNGAVTHIKIQNTGDYYDLYGGEKFATLAELVQYYMEHHGQLKEKNGDVIELKYPLNCADPTSERWFHGHLSGKEAEKLLTEKGKHGSFLVRESQSHPGDFVLSVRTGDDKGESNDGKSKVTHVMIRCQELKYDVGGGERFDSLTDLVEHYKKNPMVETLGTVLQLKQPLNTTRINAAEIESRVRELSKLAETTDKVKQGFWEEFETLQQQECKLLYSRKEGQRQENKNKNRYKNILPFDHTRVVLHDGDPNEPVSDYINANIIMPEFETKCNNSKPKKSYIATQGCLQNTVNDFWRMVFQENSRVIVMTTKEVERGKSKCVKYWPDEYALKEYGVMRVRNVKESAAHDYTLRELKLSKVGQGNTERTVWQYHFRTWPDHGVPSDPGGVLDFLEEVHHKQESIMDAGPVVVHESAGIGRTGTFIVIDILIDIIREKGVDCDIDVPKTIQMVRSQRSGMVQTEAQYRFIYMAVQHYIETLQRRIEEEQKSKRKGHEYTNIKYSLADQTSGDQSPLPPCTPTPPCAEMREDSARVYENVGLMQQQKSFR |  | fastest | slowest |
